# Reference: patent US6861578B1, “Method for plant protection against insects or nematodes by transformation with a nucleic acid encoding equistatin” (Plant Research International B.V., priority 1997, dated 2005)
# Legend:
# [1] = system: Colorado potato beetle larval gut extracts (potato protease inhibitor-insensitive cysteine proteases); assay: General proteolytic activity of Colorado potato beetle larval gut extracts, azocasein; type: biochemical, Leptinotarsa decemlineata
# Source text: (§1) Guts of final instar Colorado potato beetle larvae reared on methyl jasmonate induced plants were isolated and extracted essentially as described (Bolter and Jongsma, J. Insect Physiol. 41: 1071-1078). In these gut extracts the proteases that are sensitive to the protease inhibitors of potato are already complexed. The residual protease activity is composed of potato protease-inhibitor-insensitive proteases which were induced in response to the methyl jasmonate induced potato inhibitors. These proteases are the proteases that render the beetle larvae insensitive to protease inhibitor defense of the potato plant. Wle tested a broad range of different cysteisie protease inhibitors for activity specifically against these induced potato protease inhibitor-insensitive cysteine protesses. Nearly all of these inhibitors were purified at the Jozef Stefan Institute in Slovenia. Testing their potential against Colorado potato beetle was done using both general protein substrates (azocasein, table 2) as well as specific synthetic substrates (L-Arg-pNA, table 3; pGlu-Phe-Leu-pNA, table 4; Z-Phe-Arg-pNA, table 5; Z-Arg-Arg-pNA, table 6). In specific cases inhibitors were tested at two concentrations, eauimolar and in excess to the protease, in order to obtain an indication of the tightness of the complex. […] Importantly, this class of inhibitors was capable of inhibiting nearly all general cysteine protease activity. The equistatin peptide molecule and a functional derivative thereof were not very active against the aminopeptidase-like cysteine protease activity. […] The best combination of inhibitors for full toxicity against the Colorado potato beetle would therefore be a combination of equistatin or p41 invariant chain fragment and stefin-like inhibitors.
# trypsin = assay: Screen of equistatin against serine proteinase trypsin; limited proteolysis; type: biochemical; details: screened against cathepsin D and trypsin
# Method: Equistatin was isolated from sea anemone A. equina by a procedure that was described previously utilizing its inhibitory activity toward cysteine proteinase, papain (Lenarcic et al. (1997) J. Biol. Chem. 272: 13899). Besides cysteine proteinases, equistatin was screened for the inhibition of two other classes of proteinases, aspartic proteinases (cathepsin D) and serine proteinase (trypsin). […] 500 μg equistatin was incubated with 5 μg of β-trypsin in 0.5 ml of 0.1 M Tris/HCl buffer pH 8.0, for 40 min at 37° C. Reaction was stopped by the addition of trifluoroacetic acid. The 9-trypsin digest of equistatin was separated by high performance liquid chromatography (Milton Roy Co.) using a reverse phase Vydac C18 column equilibrated with 5% acetonicril containing 0.1% (v/v) trifluoroacetic acid. Elution was performed using a linear gradient of 80% (v/v) acetonitrile containing 0.1% (v/v) trifluoroacetic acid. Absorbance was monitored at 215 nm. Two major peaks were obtained on the reverse-phase. HPLC (FIG. 9B). The molecular weights, estimated by the SDS PAGE under non-reducing conditions, were about 7,000 and 14,000 (FIG. 10). Determination of the N-termini of the both fragments allowed them to be located in the sequence of the equistatin molecule shown schematically in FIG. 11. […]
# leafminer proteases = assay: Protease activity of adult leafminer fly extract, FITC-hemoglobin; type: biochemical, Liriomyza trifolii; details: leafminer pH 3.5; equistatin purified from sea anemone
# Method: Adult western flower thrips (Frankliniella occidentalis) and leafmirer flies (Liriomyza trifolii) adult were harvested from a culture maintained on chrysanthemum plants and complete thrips and flies were homogenized in extraction on buffer (200 mM β-alanine-HCl, pH 3.5) in a volume of 5 times the weight of the insects. The buffer pH was at the previously determined pH optimum of protease activity towards hemoglobin. Final instar Colorado potato beetle larvae maintained on potato plants as described in example 5 were checked for gut aspartic protease activity by preparing a total gut extract in pH 3 buffer which is optimal for Colorado potato beetle aspartic proteases (200 mM glycine, pH 3). Guts were homogenized in 100 μl buffer per gut. Third instar western corn rootworm larvae maintained on corn roots were used to remove the guts. Ten guts were homogenized in 100 μl water and spinned twice to remove insoluble material. Two types of buffers were used in the enzymatic assay. One with a pH presumably favoring cysteine proteases (50 mM MES, pH 6.5; 0.6 mg/ml L-cysteine) and one for detecting aspartic proteases (200 mM glycine, pH 3). Supernatants were stored at −20° C.
# 2 μl gut extract was combined with 2 μl inhibitor (2 mM pepstatin in methanol, 4 mM E64 in water, 2 mg/ml recombinant equistatin in water. The concentration of the other proteinaceous inhibitors was not known exactly). Appropriate buffers were added to a final volume of 100 μl. After 15′ preincubation 20 μl substrate (5 mg/ml FITC-hemoglobin) was added and incubated for 30-45 min at 37 C.
# Reaction was stopped by the addition of 100 μl 10% TCA. Tubes were centrifuged and 100 μl supernatant mixed with 100 μl 10 N NaOH was measured on a fluorimeter for the extent of hemoglobin hydrolysis. Measurements were done in duplicate on one (thrips, leafminer and western corn rootworm), or three (Colorado potato beetle) different gut extracts and varied by a maximum of +/−5%.
# [2] = system: tri-peptidil-peptidase and endoprotease activity of Colorado potato beetle larval gut extracts; assay: Tri-peptidil-peptidase and endoprotease activity of Colorado potato beetle gut extract, pGlu-Phe-Leu-pNA; type: biochemical, Leptinotarsa decemlineata
# Source text: as §1
# [3] = system: endoprotease activity of Colorado potato beetle larval gut extracts; assay: Narrow spectrum endoprotease activity of Colorado potato beetle gut extract, Z-Arg-Arg-pNA; type: biochemical, Leptinotarsa decemlineata
# Source text: as §1
molecule,measurement,setting,value
"equistatin: cysteine/aspartic protease inhibitor from sea anemone Actinia equina with three type I repeated thyroglobulin domains; purified or recombinant from E. coli (protein, left off: large carriers; small tags and cut ends, purified or recombinant from E. coli) SLTKCQQLQASANSGLIGTYVPQCKETGEFEEKQCWGSTGYCWCVDEDGKEILGTKIRGSPDCSRRKAALTLCQMMQAIIVNVPGWCGPPSCKADGSFDEVQCCASNGECYCVDKKGKELEGTRQQGRPTCERHLSECEEARIKAHSNSLRVEMFVPECLEDGSYNPVQCWPSTGYCWCVDEGGVKVPGSDVRFKRPTC",Residual activity in excess of inhibitor,[1],10%
same,inhibitory effect on trypsin (screen),trypsin,observed only when it was reacting with cathepsin D
same,residual protease activity,leafminer proteases,24%
same,"% of residual activity, equimolar",[2]; equimolar,10%
same,"% of residual activity, excess inhibitor",[2]; excess inhibitor,−5%
same,"% of residual activity, equimolar",[3]; equimolar,20%
same,"% of residual activity, excess inhibitor",[3]; excess inhibitor,−5%
